From patent US20260265354A1 (JIANGSU MABWELL HEALTH PHARMACEUTICAL R AND D, published 2026)
Changes are numbered by the printed parent chain.

T1: Nectin-like-2 (UniProt Q9BY67 45-374, limits assumed)
T1 construct: Bought recombinant protein; also called CADM1; IgSF4
T1 sequence (looked up): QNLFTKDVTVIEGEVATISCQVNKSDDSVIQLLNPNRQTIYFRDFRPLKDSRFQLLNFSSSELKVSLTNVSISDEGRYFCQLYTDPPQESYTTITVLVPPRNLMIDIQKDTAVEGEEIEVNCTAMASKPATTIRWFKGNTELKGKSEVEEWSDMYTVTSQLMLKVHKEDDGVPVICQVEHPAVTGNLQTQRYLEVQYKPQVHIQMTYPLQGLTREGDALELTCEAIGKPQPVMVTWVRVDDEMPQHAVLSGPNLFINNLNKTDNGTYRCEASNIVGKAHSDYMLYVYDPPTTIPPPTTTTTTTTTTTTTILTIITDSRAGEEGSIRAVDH

T2: Nectin-2 (UniProt Q92692 32-360, limits assumed)
T2 construct: Bought recombinant protein; also called CD112; PVRL-2
T2 sequence (looked up): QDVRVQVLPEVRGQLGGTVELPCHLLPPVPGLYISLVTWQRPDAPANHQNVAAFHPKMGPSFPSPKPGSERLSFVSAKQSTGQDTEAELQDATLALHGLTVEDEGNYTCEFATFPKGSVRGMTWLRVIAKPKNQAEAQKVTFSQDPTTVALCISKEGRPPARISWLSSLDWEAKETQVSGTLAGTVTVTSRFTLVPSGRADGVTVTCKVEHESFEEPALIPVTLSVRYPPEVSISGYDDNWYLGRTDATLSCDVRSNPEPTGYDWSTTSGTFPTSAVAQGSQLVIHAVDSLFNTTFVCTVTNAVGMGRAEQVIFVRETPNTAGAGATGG

T3: Nectin-like-1 (UniProt Q8N126 25-330, limits assumed)
T3 construct: Bought recombinant protein; also called CADM3; IgSF4B
T3 sequence (looked up): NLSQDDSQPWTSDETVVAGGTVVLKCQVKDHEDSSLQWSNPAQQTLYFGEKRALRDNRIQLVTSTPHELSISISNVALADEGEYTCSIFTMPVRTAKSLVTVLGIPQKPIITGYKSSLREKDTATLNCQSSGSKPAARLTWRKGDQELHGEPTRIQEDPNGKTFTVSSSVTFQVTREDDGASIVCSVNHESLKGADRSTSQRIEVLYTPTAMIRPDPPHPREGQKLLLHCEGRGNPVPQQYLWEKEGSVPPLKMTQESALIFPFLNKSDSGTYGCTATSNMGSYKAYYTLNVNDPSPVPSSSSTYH

T4: Nectin-like-3 (UniProt Q8N3J6 25-367, limits assumed)
T4 construct: Bought recombinant protein; also called CADM2; IgSF4D
T4 sequence (looked up): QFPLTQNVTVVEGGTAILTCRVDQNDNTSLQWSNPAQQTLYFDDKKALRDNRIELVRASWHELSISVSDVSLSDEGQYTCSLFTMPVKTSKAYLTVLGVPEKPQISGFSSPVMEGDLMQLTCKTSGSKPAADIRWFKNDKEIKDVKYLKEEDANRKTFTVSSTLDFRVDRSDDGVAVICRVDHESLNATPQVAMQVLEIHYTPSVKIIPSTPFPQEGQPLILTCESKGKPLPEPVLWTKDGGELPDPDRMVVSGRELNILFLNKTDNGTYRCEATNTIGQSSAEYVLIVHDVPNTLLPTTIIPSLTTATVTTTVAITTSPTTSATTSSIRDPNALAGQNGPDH

T5: Nectin-like-4 (UniProt Q8NFZ8 21-324, limits assumed)
T5 construct: Bought recombinant protein; also called CADM4; IgSF4C
T5 sequence (looked up): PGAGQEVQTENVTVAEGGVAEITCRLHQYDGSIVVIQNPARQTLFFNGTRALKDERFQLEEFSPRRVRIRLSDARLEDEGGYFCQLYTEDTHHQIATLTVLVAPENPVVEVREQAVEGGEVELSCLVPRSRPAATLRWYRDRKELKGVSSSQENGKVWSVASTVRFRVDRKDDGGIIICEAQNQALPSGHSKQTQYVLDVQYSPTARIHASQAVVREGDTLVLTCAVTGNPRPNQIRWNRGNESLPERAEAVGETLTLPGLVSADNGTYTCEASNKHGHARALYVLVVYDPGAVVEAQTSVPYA

B1: Antibody MM11 (antibody, mouse IgG1, kappa, V domains shown)
VH: DVQLQESGPGLVKPSQSLSLTCSVTGYSITSNFYWNWIRQFPGNRLEWMGYISYDGSNNYNPSLKNRISISRDTSKNQFFLKLNSVTTEDTATYYCVRADYWGQGTLVTVSA
VL: DTVMTQTPLSLPVSLGDQASISCRSSQSLESSDGHAYLNWYLQKPGQSPQLLIYRVSNRFSGVLHRFSGSGSGTDFTLKISRVEAEDLGVYFCLQFTHVPFTFGSGTKLEIKR
notes: Mouse monoclonal antibody from hybridoma; also called Nectin-4 mouse monoclonal antibody MM11; mouse antibody MM11
B2: Antibody R012 (antibody, V domains shown)
VH: SKSVEESGGRLVTPGTPLTLTCTVSGFSLSTYAMSWVRQAPGKGLEYIGIISGRGTTYYASWLKGRFTISKTSTTVDLKITSPTTEDTATYFCARDAGISDVYTGYFNLWGQGTLVTVSS
VL: QPVLAQLPSASAALGASAKLTCTLSSAHRTYTIAWYQQQQGEAPRYLMMLKSDGSYTKGTGVPDRFSGSSSGADRYLIISSVQAADEADYYCGADDSGGYVFGGGTQLTVTG
notes: Rabbit monoclonal antibody from phage display; also called Nectin-4 rabbit monoclonal antibody R012; rabbit antibody R012
B3: Antibody R036 (antibody, V domains shown)
VH: SQSVEESGGRLVTPGTPLTLTCTVSGFSLSSYAMSWVRQAPGKGLEYIGIIGGRGTTYYAIWAKGRFTISKTSTTVDLKITSPTTEDTATYFCARDAGTTYVGTTYVATGYFNLWGQGTLVTVSS
VL: B2 VL with A5T, L7P, R29K, M49I, K58R, A85D
notes: Rabbit monoclonal antibody from phage display; also called Nectin-4 rabbit monoclonal antibody R036; rabbit antibody R036

Biological target: T1, Nectin-like-2
Test: ELISA, coated antigen

Binder	binding result
B1	no binding (tested: 10000 ng/ml)
B2	no binding (tested: 10000 ng/ml)
B3	no binding (tested: 10000 ng/ml)

Biological target: T2, Nectin-2
Test: ELISA, coated antigen

Binder	binding result
B1	no binding (tested: 10000 ng/ml)
B2	no binding (tested: 10000 ng/ml)
B3	no binding (tested: 10000 ng/ml)

Biological target: T6, Nectin-3 (UniProt Q9NQS3 58-404, limits assumed)
T6 construct: Bought recombinant protein; also called CD113; PVRL-3
Test: ELISA, coated antigen

T6 sequence (Q9NQS3 58-404 limits assumed): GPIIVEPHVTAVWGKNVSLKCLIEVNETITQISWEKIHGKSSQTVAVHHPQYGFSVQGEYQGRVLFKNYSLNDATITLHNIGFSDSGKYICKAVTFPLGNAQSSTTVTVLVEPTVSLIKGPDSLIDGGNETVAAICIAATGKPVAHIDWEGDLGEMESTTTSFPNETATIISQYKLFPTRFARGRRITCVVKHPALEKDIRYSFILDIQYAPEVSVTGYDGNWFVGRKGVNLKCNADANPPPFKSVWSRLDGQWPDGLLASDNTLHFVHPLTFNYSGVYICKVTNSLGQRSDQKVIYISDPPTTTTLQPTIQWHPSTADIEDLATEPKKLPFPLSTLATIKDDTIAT

Binder	binding result
B1	no binding (tested: 10000 ng/ml)
B2	no binding (tested: 10000 ng/ml)
B3	no binding (tested: 10000 ng/ml)

Biological target: T3, Nectin-like-1
Test: ELISA, coated antigen

Binder	binding result
B1	no binding (tested: 10000 ng/ml)
B2	no binding (tested: 10000 ng/ml)
B3	no binding (tested: 10000 ng/ml)

Biological target: T1, Nectin-like-2
Test: ELISA, coated antigen, antibody at 10 ng/ml
Procedure: (§1) Coating: Nectin-1, Nectin-2, Nectin-3, Nectin-4, Nectin-like-1, Nectin-like-2, Nectin-like-3, Nectin-like-4, and Nectin-like-5 were diluted to 5 μg/ml in coating buffer (carbonate buffer, pH 9.6) respectively. A 96-well plate was coat with 100 μl per well and incubated overnight at 2-8° C.;
(§2) Sample loading: The plate was taken out, patted dry, and washed twice with 200 μl/well of PBST, then patted dry. The Nectin-4 antibodies prepared in Example 1 (antibody MM11, antibody R012, and antibody R036) were diluted with 1% BSA/PBST to concentrations of 10 μg/ml, 1 μg/ml, 100 ng/ml, and 10 ng/ml, respectively. 1% BSA/PBST solution for dilution was set as a blank control. 100 μl per well was added to the 96-well plate, and incubated at room temperature for 2 hours;
(§3) Reaction termination and plate reading: 100 μl/well of 1 mol/L H3PO4 was added to terminate the reaction and the plated was read. The absorbances of wells in the plate at 450 nm with 650 nm as reference wavelength were read and recorded as OD_{450 nm-650 nm}.

Binder	OD detection value [OD450 nm-650 nm]
B1	0.007
B2	0.008
B3	0.007

Biological target: T4, Nectin-like-3
Test: ELISA, coated antigen, antibody at 10 ng/ml
Procedure: as §1, §2, §3

Binder	OD detection value [OD450 nm-650 nm]
B1	0.03
B2	0.009
B3	0.008

Biological target: T5, Nectin-like-4
Test: ELISA, coated antigen, antibody at 10 ng/ml
Procedure: as §1, §2, §3

Binder	OD detection value [OD450 nm-650 nm]
B1	0.004
B2	0.008
B3	0.007

Biological target: T2, Nectin-2
Test: ELISA, coated antigen, antibody at 10 ng/ml
Procedure: as §1, §2, §3

Binder	OD detection value [OD450 nm-650 nm]
B1	0.014
B2	0.008
B3	0.007

Biological target: T6, Nectin-3
Test: ELISA, coated antigen, antibody at 10 ng/ml
Procedure: as §1, §2, §3

Binder	OD detection value [OD450 nm-650 nm]
B1	0.006
B2	0.008
B3	0.007

Biological target: T3, Nectin-like-1
Test: ELISA, coated antigen, antibody at 10 ng/ml
Procedure: as §1, §2, §3

Binder	OD detection value [OD450 nm-650 nm]
B1	0.006
B2	0.008
B3	0.007
